Columns and labels:
human CD19 (human) [1] = target: human CD19 (human) (UniProt P15391); experiment: dSTORM, isotype control on NALM-6 cells (background), antibody at 2.5 µg/ml
human CD19 (human) [2] = target: human CD19 (human) (UniProt P15391); experiment: dSTORM, isotype control on NALM-6 cells (background), antibody at 5 × 10^-3 µg/ml
human CD19 (human) [3] = target: human CD19 (human) (UniProt P15391); experiment: dSTORM, isotype control on NALM-6 cells (background), antibody at 0.05 µg/ml
human CD19 (human) [4] = target: human CD19 (human) (UniProt P15391); experiment: dSTORM, isotype control on NALM-6 cells (background), antibody at 10 µg/ml
human CD19 (human) [5] = target: human CD19 (human) (UniProt P15391); experiment: dSTORM, isotype control on NALM-6 cells (background), antibody at 5 × 10^-5 µg/ml
human CD19 (human) [6] = target: human CD19 (human) (UniProt P15391); experiment: dSTORM, isotype control on NALM-6 cells (background), antibody at 5 × 10^-4 µg/ml
human CD19 (human) [7] = target: human CD19 (human) (UniProt P15391); experiment: dSTORM, isotype control on NALM-6 cells (background), antibody at 0.5 µg/ml
human CD19 (human) [8] = target: human CD19 (human) (UniProt P15391); experiment: dSTORM, isotype control on NALM-6 cells (background), antibody at 5 µg/ml
human CD19 (human) [9] = target: human CD19 (human) (UniProt P15391); experiment: dSTORM, antibody titration on NALM-6 cells, antibody at 2.5 µg/ml
human CD19 (human) [10] = target: human CD19 (human) (UniProt P15391); experiment: dSTORM on NALM-6 cells, antibody at 5×10^-5 µg/ml
human CD19 (human) [11] = target: human CD19 (human) (UniProt P15391); experiment: dSTORM, antibody titration on NALM-6 cells, antibody at 5 × 10^-3 µg/ml
human CD19 (human) [12] = target: human CD19 (human) (UniProt P15391); experiment: dSTORM, antibody titration on NALM-6 cells, antibody at 5 × 10^-4 µg/ml
human CD19 (human) [13] = target: human CD19 (human) (UniProt P15391); experiment: dSTORM, antibody titration on NALM-6 cells, antibody at 10 µg/ml
human CD19 (human) [14] = target: human CD19 (human) (UniProt P15391); experiment: dSTORM, antibody titration on NALM-6 cells, antibody at 5 µg/ml
human CD19 (human) [15] = target: human CD19 (human) (UniProt P15391); experiment: dSTORM, antibody titration on NALM-6 cells, antibody at 0.5 µg/ml
human CD19 (human) [16] = target: human CD19 (human) (UniProt P15391); experiment: dSTORM, antibody titration on NALM-6 cells, antibody at 5 × 10^-5 µg/ml
human CD19 (human) [17] = target: human CD19 (human) (UniProt P15391); experiment: dSTORM on NALM-6 cells, antibody at c≥2.5 µg/ml
human CD19 (human) [18] = target: human CD19 (human) (UniProt P15391); experiment: dSTORM, antibody titration on NALM-6 cells, antibody at 0.05 µg/ml

Chain of UniProt P15391 (P15391 20-556): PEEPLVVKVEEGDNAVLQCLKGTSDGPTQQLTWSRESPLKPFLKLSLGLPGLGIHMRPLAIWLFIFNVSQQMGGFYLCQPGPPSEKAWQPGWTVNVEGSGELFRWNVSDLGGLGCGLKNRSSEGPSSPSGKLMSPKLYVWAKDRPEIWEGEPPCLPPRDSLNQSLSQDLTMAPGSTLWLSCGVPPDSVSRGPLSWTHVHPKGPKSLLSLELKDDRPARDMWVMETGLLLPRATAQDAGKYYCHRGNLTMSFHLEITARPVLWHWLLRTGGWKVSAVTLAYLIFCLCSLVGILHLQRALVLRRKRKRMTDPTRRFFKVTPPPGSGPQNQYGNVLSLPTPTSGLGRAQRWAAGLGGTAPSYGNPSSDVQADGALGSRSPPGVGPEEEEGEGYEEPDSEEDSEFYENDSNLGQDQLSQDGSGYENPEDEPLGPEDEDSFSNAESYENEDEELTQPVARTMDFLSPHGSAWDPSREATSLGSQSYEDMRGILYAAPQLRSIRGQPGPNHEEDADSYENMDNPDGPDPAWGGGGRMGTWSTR

Row | Substance | Molecules per cell (molecules per cell) (human CD19 (human) [1]) | Molecules per cell (molecules per cell) (human CD19 (human) [2]) | Molecules per cell (molecules per cell) (human CD19 (human) [3]) | Molecules per cell (molecules per cell) (human CD19 (human) [4]) | Molecules per cell (molecules per cell) (human CD19 (human) [5]) | Molecules per cell (molecules per cell) (human CD19 (human) [6]) | Molecules per cell (molecules per cell) (human CD19 (human) [7]) | Molecules per cell (molecules per cell) (human CD19 (human) [8]) | Molecules per cell (molecules per cell) (human CD19 (human) [9]) | CD19 molecules/µm^2 at the detection limit (CD19 molecules/µm^2) (human CD19 (human) [10]) | Molecules per cell (molecules per cell) (human CD19 (human) [11]) | Molecules per cell (molecules per cell) (human CD19 (human) [12]) | Molecules per cell (molecules per cell) (human CD19 (human) [13]) | Molecules per cell (molecules per cell) (human CD19 (human) [14]) | Molecules per cell (molecules per cell) (human CD19 (human) [15]) | Molecules per cell (molecules per cell) (human CD19 (human) [16]) | CD19 molecules/µm^2 under saturating conditions (CD19 molecules/µm^2) (human CD19 (human) [17]) | Molecules per cell (molecules per cell) (human CD19 (human) [18])
1 | AF647 isotype control antibody (BioLegend) | 50 | 1.3 | 7.1 | 72 | 0 | 0.8 | 44 | 85 |  |  |  |  |  |  |  |  |  | 
2 | anti-CD19 antibody, clone HIB19, Alexa Fluor 647 conjugate (BioLegend) |  |  |  |  |  |  |  |  | 1780 | 0.006 | 67 | 12 | 1880 | 1860 | 710 | 3.1 | 3.4 | 182

From patent US20200209240A1
